Measured values reported in patent US20180155405A1 (AB INITIO BIOTHERAPEUTICS, published 2018).
Where two headings read alike, the source gives them in different places.

How the values were obtained:
human PD-L1 = biological target: T1, human PD-L1 (human, UniProt Q9NZQ7 19-239, limits assumed, biotinylated in Examples 4 and 5); assay: SPR, HGV3 held on chip-captured biotinylated human CD47, then PD-L1 injected; the PD-L1 concentration is not shown
T1 construct: also called biotinylated human PD-L1
T1 sequence (Q9NZQ7 19-239 limits assumed): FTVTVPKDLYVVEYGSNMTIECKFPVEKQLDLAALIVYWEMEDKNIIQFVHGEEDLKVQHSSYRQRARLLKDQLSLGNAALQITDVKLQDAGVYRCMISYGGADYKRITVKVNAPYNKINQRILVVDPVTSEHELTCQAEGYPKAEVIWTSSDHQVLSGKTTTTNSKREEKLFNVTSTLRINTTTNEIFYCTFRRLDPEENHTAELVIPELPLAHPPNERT

[1] = biological target: T2, biotinylated human CD47 (IgSF domain, residues 1-117, C15G) (human, UniProt Q08722 19-135, biotinylated in vitro with BirA ligase on the biotin acceptor peptide tag); assay: SPR (Biacore T100), biotinylated CD47 on SA chip, 1:1 Langmuir model
T2 construct: range 1-117; Captured on a Biacore SA chip; also called biotinylated CD47
T2 sequence (Q08722 other isoform, or with tags, fused parts or gaps C15G C15G limits assumed): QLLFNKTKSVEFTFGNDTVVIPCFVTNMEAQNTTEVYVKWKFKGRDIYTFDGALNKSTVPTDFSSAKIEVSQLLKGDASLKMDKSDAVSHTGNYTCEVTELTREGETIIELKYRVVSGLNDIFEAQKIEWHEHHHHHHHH

[2] = biological target: T3, CD47 on human cells (CD47+, PDL1+); assay: in vivo receptor occupancy: NSG mice injected with GV3 on three consecutive days, spleen cells harvested 1 hr and 24 hrs after the last injection, free CD47 read by SIRPA-tetramer binding (FACS) on human HL60-Tg(hPDL1, GFP) cells
T3 construct: These cells also carry human PD-L1; also called HL60-Tg(hPDL1, GFP) cells isolated from the spleen; human CD47+ PDL1+ cells
T3 sequence (chain, as listed by the source limits assumed): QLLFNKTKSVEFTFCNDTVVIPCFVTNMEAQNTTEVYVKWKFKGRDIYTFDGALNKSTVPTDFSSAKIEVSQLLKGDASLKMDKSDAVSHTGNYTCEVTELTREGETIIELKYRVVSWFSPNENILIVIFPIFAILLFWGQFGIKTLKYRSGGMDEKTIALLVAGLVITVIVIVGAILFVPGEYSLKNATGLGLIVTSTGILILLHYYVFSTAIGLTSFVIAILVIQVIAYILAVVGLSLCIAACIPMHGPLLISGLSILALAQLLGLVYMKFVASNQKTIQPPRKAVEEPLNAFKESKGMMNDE

[3] = biological target: T4, CD47 on the surface of GFP-luciferase+ DLD1-Tg cells (UniProt Q08722 19-323, limits assumed); assay: flow cytometry competition on DLD1-Tg(GFP-Luc) cells (CD47+), competitor 50 nM biotinylated SIRP-alpha tetramer
T4 construct: whole, on cells; also called CD47+ cells; CD47+ PD-L1+ cells
T4 sequence (Q08722 19-323 limits assumed): as the sequence (chain, as listed by the source limits assumed) above

[4] = biological target: T5, CD47 on total splenic cells; assay: in vivo receptor occupancy: NSG mice injected with GV3 on three consecutive days, spleen cells harvested 1 hr and 24 hrs after the last injection, free CD47 read by SIRPA-tetramer binding (FACS)
T5 construct: also called % occupied CD47
T5 sequence (Q61735 whole entry, species assumed, looked up): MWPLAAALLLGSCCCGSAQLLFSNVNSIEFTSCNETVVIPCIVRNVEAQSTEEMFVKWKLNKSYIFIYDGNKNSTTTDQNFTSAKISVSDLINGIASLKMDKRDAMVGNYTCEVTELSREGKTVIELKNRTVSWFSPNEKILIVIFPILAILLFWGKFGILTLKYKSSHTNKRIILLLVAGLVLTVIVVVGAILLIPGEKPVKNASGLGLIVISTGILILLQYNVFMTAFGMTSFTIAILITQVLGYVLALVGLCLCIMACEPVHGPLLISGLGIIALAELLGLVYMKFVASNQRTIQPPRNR

[5] = biological target: T6, CD47 on mouse splenocytes (mouse, UniProt Q61735); assay: in vivo receptor occupancy: NSG mice injected with GV3 on three consecutive days, spleen cells harvested 1 hr and 24 hrs after the last injection, free CD47 read by SIRPA-tetramer binding (FACS) on mouse splenocytes
T6 construct: cell surface, full length; also called % occupied CD47
T6 sequence (receptor on cells, looked up): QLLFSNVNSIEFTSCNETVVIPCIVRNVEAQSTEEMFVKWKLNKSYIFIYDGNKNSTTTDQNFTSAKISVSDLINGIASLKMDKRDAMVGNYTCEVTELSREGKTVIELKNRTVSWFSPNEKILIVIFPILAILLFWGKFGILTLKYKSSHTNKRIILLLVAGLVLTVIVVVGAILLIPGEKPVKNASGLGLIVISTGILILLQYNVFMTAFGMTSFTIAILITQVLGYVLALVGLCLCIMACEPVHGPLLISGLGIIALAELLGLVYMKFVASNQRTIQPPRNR

[6] = biological target: T4, CD47 on the surface of GFP-luciferase+ …

B1: SIRP-gamma variant GV3 (designed binder)
chain: EEELQIIQPEKLLLVTVGKTATLHCTITSLFPVGPIQWFRGVGPGRVLIYNQKDGHFPRVTTVSDGTKRNNMDFSIRISSITPADVGTYYCVKFRKGSPEDVEFKSGPGTEMALGAKPSHHHHHHHH
notes: Monomers were made as MBP fusions in E. coli and MBP was removed with 3C protease; also called HGV3; human GV3
**Q.** Does B1 bind (human PD-L1)?
**A.** Result: no binding

**Q.** What about the Kd [1] of the same binder?
**A.** The Kd was 0.092 nM.

**Q.** And the “dissociation half-life T1/2” value [1]?
**A.** Its value is roughly 44 min.

**Q.** What about the RO half-life [2] of the same binder?
**A.** Its RO half-life is roughly 30 h.

**Q.** What about the “IC50 (read off the curve)” value [3] of the same binder?
**A.** The value was roughly 700 pM.

**Q.** And the RO half-life [4]?
**A.** The RO half-life was roughly 10 h.

**Q.** And the RO half-life [5]?
**A.** The RO half-life was roughly 5 h.

**Q.** What about the “IC50 (read off the curve)” value [6] of the same binder?
**A.** Its value is roughly 1 nM.
